Measured values from the nanobody polyreactivity screen of Harvey et al. (2022).

Experiment: yeast display, Sf9 membrane polyspecificity reagent, FACS + sequencing; frameworks hold sequencing errors
Summary of the method: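 Polyreactivity labels are assigned by the sorting gate from which each nanobody was recovered. The gates were low and high (top ~1%), set on anti-HA fluorescence for expression and streptavidin fluorescence for reagent binding. Before sorting, galactose-induced (36–48 hours) yeast display cells were stained for 1 hour at 4 °C with 10% biotinylated, detergent-solubilized Sf9 membrane reagent.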
In the case of “QVQLVESGGGLVQAGGSLRLSCAASGITFRGYAMGWYRQAPGKERELVAAITWSGGSTYYADSVKGRFTISRDNAKNTVYLQMNSLKPEDTAVYYCAAYSLHNYLSEYGYWGQGTQVTVSS”, the “polyreactivity (PSR sort gate)” value was “high polyreactivity”. With “QVQLVESGGGLVQAGGSLRLSCAASGRTFSNYAMGGYRQAPGKERELVAAISERGGSTYYADSVKGRFTISRDNPKNSVFVQLNSLKPEDTAVYDCNALFRLRAYAEMDYWGQGTQVTVSS” the “polyreactivity (PSR sort gate)” value was “high polyreactivity”. In the case of “QVQLVESGGGLVQAGGSLRLSCAASGRILWWYAMAWYRQAPGKERELVATITYSGGSTYADSVKGRFTISRDNAKNTVYLQMNSLKPVDTAVYYCAARLALYYGKSVYWGQGTQVTVSS”, the “polyreactivity (PSR sort gate)” value was “high polyreactivity”. With “QVQLVESGGGLVQAGGSLRLSCAASGFTFWTYAMGWYRQAPGKERELVAAIDSGGSTYYADSVKGRFTISRDNAKNTVYLQMNSLKPEDSAVYYCNAGPSVTSGYDYDYWGQGTQVTVSS” the “polyreactivity (PSR sort gate)” value was “low polyreactivity”. With “QVQLVESGGGLVQAGGSLRLSCAASGSIFGAYAMGWYRQAPGKERELVAAIDKSTGSTYYADSVKGRFTISRDNAKNTVYLQMNSLKPEDTAVYYCAKDWGVYQYSYDYWGQGTQVTVSS” the “polyreactivity (PSR sort gate)” value was “low polyreactivity”. In the case of “QVQLVESGGGLVQAGGSLRLSCAASGSLIGQNAMGWYRQAPGKERELVATISRSGARTYYADSVKGRFTISRDIAKNTVYLQMNSLKPEDTAVYYCAARLLSVGVPMYSWGQGTQVTVSS”, the “polyreactivity (PSR sort gate)” value was “high polyreactivity”. With “QVQLVESGGGLVQAGGSLRLSCAASGRTLSNYAMGWSRQAPGKETELVAAISSSGSTNYADSVKGRFTISRDNAKNTVYLQMNSLKPEDTAVYYCAAESWFLRWYRYDYWGQGTQVSVSS” the “polyreactivity (PSR sort gate)” value was “low polyreactivity”. With “QVQLVESGGGLVQAGGSLRLSCAASGSIFTFYAMGWYRQAPGKERELVARITRGVSTNYADSVKGRFTISRDNAKITVYLQLNSLKPEDTAVYYCAAESGNRYEYWGQGTQVTVSS” the “polyreactivity (PSR sort gate)” value was “low polyreactivity”. In the case of “QVQLVESGGGLVQAGGSLRLSCAASGITFSPYTMGWYRQAPGKERELVAAINSGGRTNYADSVKGRFTISRDNAKNTVYLQMNSLKPEDTAVYYCTKRGHPARLGYYYWGQGTQVTVSS”, the “polyreactivity (PSR sort gate)” value was “low polyreactivity”. In the case of “QVQLVESGGGLVQAGGSLRLSCAASGSTFDFYAMGWYRQAPGKERELVARISSGGGRTYYADSVKGRFTISRDNAKNTVYLQMNSLKPEDTAVYYCATDYPWIFGHFLMDYWGQGTQVTVSS”, the “polyreactivity (PSR sort gate)” value was “low polyreactivity”. For “QVQLVESGGGLVQAGGSLRLSCAASGFIFWYYGMGWYRPAPGKERELVATITSGGSTTYADSVKGRFTISRDNAKNTVYLQMNSLKPEDTAVYYCAADLFYGYYSQADFEYWGQGTQVTVSS”, the “polyreactivity (PSR sort gate)” value was “high polyreactivity”. For “QVQLVESGGGLVQAGGSLRLSCAASGRTFARYAMGWYRPAPGKERELVAAISSSGGSTYYADSVKWRFTISRDNAKNTVYLQMNSLKPEDTAVYYCVTYRNWWYDFWGQGTQVTGSS”, the “polyreactivity (PSR sort gate)” value was “high polyreactivity”. In the case of “QVQLVESGGGLVQARGSLRLSCPASGITFARYAMEWSRQAPGKERELVAAISYGGGSTYYADSVKGRFTISRDNAKNTVYLQMNSLKPEDTSVYYCNNVPRKSYGYWGQGTQVTVSS”, the “polyreactivity (PSR sort gate)” value was “high polyreactivity”. In the case of “QVQLVESGGGLVQAGGSLRLSCAASGNTLRYYAMGWYRQAPGKERELVAAITRRGGSTYADSVKGRFTISRDNAKNTVYLQMNSLKPEDTAVYYCNRVLYDHSFPYNRGYDYWGQGTQVTVSS”, the “polyreactivity (PSR sort gate)” value was “high polyreactivity”. In the case of “QDQLVESGGGLVQAGGSLRLSCAASGSTFPDYAMGWYRQAPGKERELVAAISRSGGRTYYADSVKGRFTISRDNAKNTVYLQMNSLKPDDTAVYYCATSRVRSAGRDYWGQGTQVTVSS”, the “polyreactivity (PSR sort gate)” value was “high polyreactivity”. For “QVQLVESGGGLVQAGGSLRLSCAASGLIFASYAMGWYRQAPGKERELVAAISWSGGSTYYADSVKGRFTISRDNAKNTVYLQMNSLKPEDTAVYYCAAKRYAYGSLDYWGQGTQVTVSS”, the “polyreactivity (PSR sort gate)” value was “high polyreactivity”. For “QLQLVESGGGLVQAGGSLRLSSAPSGITLQYYAMGWYRQAPGKERELVAAISYRGGRTYYADSVKGRFTISRDNAKNTVYLQMNSLKPEDTAGYYCARRSSKPSSIQYYYWGQGTQVTVSS”, the “polyreactivity (PSR sort gate)” value was “high polyreactivity”. In the case of “QVQLVESGGGLVQAGGSLRLSCAASGYTSKTYAMGWYRQAPGKERELVAAINWGSGSTYYADSVKGRFTISRDNAKNTVYFQMYSLKPEDTAVYYCAALVYGHRRLVGNLSRGYWGQGTQVTVSS”, the “polyreactivity (PSR sort gate)” value was “high polyreactivity”. For “QVQHVESGGGLVQAGGSLLLSCAASGSIFYLYAMGWYRQEPGKERELVATMSSSGGSTYYADSVKGRFTISRDNAKNTVYLQMNSLKPEDTAVYYCNADYIYYGTTYEYWGQGTQVTVSS”, the “polyreactivity (PSR sort gate)” value was “low polyreactivity”. In the case of “QVQLVESGGGLVQAGGSLRLSSAASGRNFGPYTMRWSRQAPGKERELVATISYSGSTTYYADSVKGRFTISRDNAKNTVYLQMNSLKPEDTAVYYCNAQYYVFITFDYWGQGTQVTVSS”, the “polyreactivity (PSR sort gate)” value was “high polyreactivity”. With “QVQLVESGGGLVQAGGSLRLSCAASGFIFAINAMGWYRQAPGKERELVAAITSSGGSTYYADSVKGRFTISRDNAKNTVYLQMNSLKPEDTAVYYCAAPQGNPSQDWEDYWGQGTQVTVSS” the “polyreactivity (PSR sort gate)” value was “low polyreactivity”. With “QVQLVESGGGLVQAGGSLRLSCAASGSTFSSYAMGWYRQAPGKEREIVADINGSGGRTYYADSVKGRFTISRDNAKNTVYLQMNSLKPEDTAVYYCIAYYLQGEYYTEDYWGQGTQVTVSS” the “polyreactivity (PSR sort gate)” value was “low polyreactivity”. In the case of “QVQLVESGGGLVQAGGSLRLSCAASGSTIDTYAMGWYRQAPGKERELVAGISWSGGSTFYADSVKGRFTISRDNAKNTVYLQMNSLKPEDTAVYYCAKQLWVGVKYDYWGQGTQVTVSS”, the “polyreactivity (PSR sort gate)” value was “low polyreactivity”. In the case of “QVQLVESGGGLVQAGGSLRLSCAPSGSIFWYYCKGWYRQAPGKERELVAAISSGGSTNYADSVKGRFAISRDNAKNTVYLQMNSLKAEDTAVYYCAVRFTFPRYDYWGQGTQVTVSS”, the “polyreactivity (PSR sort gate)” value was “high polyreactivity”. In the case of “QVQLVESGGGLVQAGGSLRLSCAASGSTFDTNAMGWYRQAPGKERELVASISSAGSTNYADSVKGRFTISRDNAKNTVYLQMNSLKPEDTAVYYCAKYYGQFYPPTLGYWGQGTQVTVSS”, the “polyreactivity (PSR sort gate)” value was “low polyreactivity”. For “QVQLVESGGGLVQAGGSLRLSCAASGRTFWYYTMGWYRQAPGKERELVASITSGSGTTYYADSVKGRFTISRDNAKNTVYLQMNSLKPEDTAVSSCAAKNTPSFFYYDRYDYWGQGTQVTVSS”, the “polyreactivity (PSR sort gate)” value was “low polyreactivity”. In the case of “QVQLVDSGGGLVPAGGSLRLSCAASGFTFTRYVMGWYRQAPGKERELVAAISGSGGSTNYADSVKGRFTISRDNAKNTVYLQMNSLKPEDTAVYYCAVGYRGWDGYWGQGTQVTVSS”, the “polyreactivity (PSR sort gate)” value was “high polyreactivity”. For “QVQLVESGGGLVQAGGSLRLSCAASGRTFPLYAMGWYRQAPGKERELVAAISWSGGSTYYADSVKGRFTISRDHAKNTVYLQMNSLKPEDTAVYYCNTLGRLTGRYGWSSKYYYWGQGTQVTVSS”, the “polyreactivity (PSR sort gate)” value was “high polyreactivity”. In the case of “QVQLVESGGGLVQAGRSLRLSCAASGSTFWPNAMGWYRPAPGKERELVAAITSGGRTKYADSVKGRFTISRDNAKNTVYLQMNSLKPEDTAFYYCAKRKGDRGAWIHAYGWEDVDYWGQGTQVTVSS”, the “polyreactivity (PSR sort gate)” value was “low polyreactivity”. In the case of “QVQLVESGGGLVQAGGSLRLSCAASGNTFDIYAMGWYRQAPGKERELVAAISSSGGSTYYADSVKGRFTISRDNAKNTVYLQMNSLKPEDTAVYYFNARHRQWARGYWGQGTQVTVSS”, the “polyreactivity (PSR sort gate)” value was “high polyreactivity”. With “QVQLVESGGGLVQAGGSLRLSCAASGFIFVRYAMGWYRLAPGKEREFVAAISGGAGSSYYADSVKGRFTISRDNAKNTVYLQMNSLKPEDTAVYYCNRVRSLRYGYWGQGTQVTVSS” the “polyreactivity (PSR sort gate)” value was “high polyreactivity”. With “QVQLVESGGGLVQAGGSLRLSCAASASTFPVNAMGWYRQAPGKERELVAAIRSSTGRTYYADSVKGRFTISRDNAKNTVYLQMNSLKPEDTAVYYCAAYYLGQYEYDYWGQGTQVTVSS” the “polyreactivity (PSR sort gate)” value was “low polyreactivity”. In the case of “QVHLEESCGGLVQAGGTLRLSCAASGSTFPRYVMGWYRQAPGKERELVAAITSGGSTYYADSVKGRFTISRDNAKNTVYLQMNRLKPEDTAVFYCAAGSYRVVWYDSWGQGTLVTVSS”, the “polyreactivity (PSR sort gate)” value was “high polyreactivity”. With “QVQLVESGGGLVQAGGSLRLSCAASGRIFTRYAMGWYRQAPGKERELVDGITSRGGSTYYADSVKGRYTISRDNAKNTVYLQMNSLKPEDTAVYYCNKRYTGENDYWGQGTQVTVSS” the “polyreactivity (PSR sort gate)” value was “high polyreactivity”. In the case of “QVQLVESGGRLVQAGGSLRLSCAASGSIFYDNAMGWYRQAPGKERELVAVITVSGDSTYYADSVKGRFTISRDNAKNTVYLQMNSLKPEDTAVYYCNTDAISGSHFWRYITFGYLDDYWGQGTQVTVSS”, the “polyreactivity (PSR sort gate)” value was “low polyreactivity”. With “QVHLVESGGGLVQAGGSLRLSCSASGSTFYIYTMGCYRQAPGKARELVAAISSSGGSTYYADSVKGRFTISRDNAKNTVYLQMNILKPEDTAVYYCAADPWVRLEYDYWGQGTQVTVSS” the “polyreactivity (PSR sort gate)” value was “low polyreactivity”. In the case of “QVQLVESGGGLVQAGGSLRLSCSASGRTFYEYAMGWYIQAPGKERELVAGITSGGSTNYADSVKGRFTISRDNAKNTVYLQMNSLKPEDTAVYYCAATYWGYEYDYWGQGTQVTVSS”, the “polyreactivity (PSR sort gate)” value was “low polyreactivity”. With “QVQLVESGGGLVQAGGSLRLSCAASGRTFGFYAMGWYRQAPGKEREFVAAIYKSGGSTYYADSVKGRFTISRDIANNTVYLQMISLKPEDTAVYYCIKKVGSYYRSYYYWGQGTQVTVSS” the “polyreactivity (PSR sort gate)” value was “high polyreactivity”. With “QVQLVESGGGLVQAGGSLRLICAASGFISSENAMGWYRQAPGKERELVAAISSGGSTNYADSVKGRFTISRDNAKYTVYLQMYSLKPEDTAVYYCNAEAIQAVYYAYEYWGQGTQVTVSS” the “polyreactivity (PSR sort gate)” value was “low polyreactivity”. In the case of “QVQLVETGGGLVQAGGSLSLSCAASGSTSSRYAMGWYRQAPGKEMELVARINWNGGSTYYADSVKGRFTISRDNAKNTVYLQMNSLKPEDTAVYYCAADSFGITYVSYVSIYDFDYWGQGTQLTVSS”, the “polyreactivity (PSR sort gate)” value was “low polyreactivity”. With “QVQLVESGGGLVQAGGSLRLSCADSGSTFYRNAMGWYRQAPGKERELVASINNRGSTYYADSVKGRFTISRDNAKNTVYLQMNRLKPEDTAVYYFAATESWDYDYWGQGTQVTVSS” the “polyreactivity (PSR sort gate)” value was “low polyreactivity”. For “QVQLVESGGCLVQAGGSLRLSCAASGSIFYRNAMGWYRQAPGKERELVAAISSDGSTNYADSVKGRFTISRDNAKNTVYLQMNSLKPEDTAVYYCAAPWTQILDYWGQGTQVTVSS”, the “polyreactivity (PSR sort gate)” value was “low polyreactivity”. In the case of “QVQLVESGGGLVQAGGSLRLSCAASGSTLSDYAMGWYRQAPGKERELVAAISTSGGRTYYADSVKGRFTISRDNAKNTVYLQMNSLKPEDTAVYYCAVDHYSSYEYWGQGTQVSVSS”, the “polyreactivity (PSR sort gate)” value was “low polyreactivity”.
